Experiments:
[1] = target: BBK32-C (C-terminal region of BBK32, residues 206-354) (B. burgdorferi B31) (UniProt O50835); experiment: SPR; Biacore 3000, 25°C; BBK32 proteins immobilised by amine coupling on a C1 sensor chip; running buffer HBS-T-Ca2+ (20 mM HEPES pH 7.3, 140 mM NaCl, 0.005% Tween 20, 5 mM CaCl2), 10 μl/min; C1 0.2-100 nM, C1r enzyme 0.39-200 nM or 2.0-1000 nM series, 1:1 (Langmuir) kinetic fit; single C1 components at a fixed 50 nM
[2] = target: BBK32-FL (recombinant BBK32, residues 21 to 354) (B. burgdorferi B31) (UniProt O50835); experiment: as above
[3] = target: C1r enzyme (activated human complement C1r protease) (human)
[4] = target: first component of human complement, C1 (C1 complex) (human) (UniProt P02745)

Row | Molecule | Kd [1] [nM] | koff [1] [s⁻¹] | kon [1] [M⁻¹ s⁻¹] | Kd [2] [nM] | koff [2] [s⁻¹] | kon [2] [M⁻¹ s⁻¹] | IC50 of C1r enzyme activity (cleavage of C1s proenzyme by 50 nM C1r enzyme, SDS-PAGE densitometry) [3] [nM] | IC50 of classical pathway inhibition, ELISA: C3b detection (immobilised human IgM, 1% human serum) [4] [nM] | IC50 of classical pathway inhibition, ELISA: C4b detection (immobilised human IgM, 1% human serum) [4] [nM] | IC50 of inhibition of CP-mediated hemolysis (CP50, sensitized sheep erythrocytes, 1% normal human serum) [4] [nM]
1 | C1r enzyme (activated human complement C1r protease) | 32 | 0.00011 | 3900 | 15 | 0.00022 | 19000 |  |  |  | 
2 | first component of human complement, C1 (C1 complex) (from UniProt P02745 23-245; P02746 28-253; P02747 29-245) | 2.3 |  |  |  |  |  |  |  |  | 
3 | BBK32-FL (recombinant BBK32, residues 21 to 354) (natural protein) DLFIRYEMKEESPGLFDKGNSILETSEESIKKPMNKKGKGKIARKKGKSKVSRKEPYIHSLKRDSANKSNFLQKNVILEEESLKTELLKEQSETRKEKIQKQQDEYKGMTQGSLNSLSGESGELEEPIESNEIDLTIDSDLRPKSSLQGIAGSNSISYTDEIEEEDYDQYYLDEYDEEDEEEIRLSNRYQSYLEGVKYNVDSAIQTITKIYNTYTLFSTKLTQMYSTRLDNFAKAKAKEEAAKFTKEDLEKNFKTLLNYIQVSVKTAANFVYINDTHAKRKLENIEAEIKTLIAKIKEQSNLYEAYKAIVTSILLMRDSLKEVQGIIDKNGVWY |  |  |  |  |  |  | 670 | 34 | 34 | 110
4 | BBK32-C (C-terminal region of BBK32, residues 206-354) (domain or fragment) SNRYQSYLEGVKYNVDSAIQTITKIYNTYTLFSTKLTQMYSTRLDNFAKAKAKEEAAKFTKEDLEKNFKTLLNYIQVSVKTAANFVYINDTHAKRKLENIEAEIKTLIAKIKEQSNLYEAYKAIVTSILLMRDSLKEVQGIIDKNGVWY |  |  |  |  |  |  | 540 | 4.7 | 5.6 | 60
